Data: patent publication US7208293

What was measured:
[1] = target: human neutrophil elastase (human) (UniProt P08246); assay: HNE beads, abbreviated fractionation, SUM of pH fractions
[2] = target: human Cathepsin G (human) (UniProt P08311); assay: Cat-G beads, pH 3.5 elution
[3] = target: human Cathepsin G (human) (UniProt P08311); assay: Cat-G beads, pH 5.5 elution
[4] = target: human Cathepsin G (human) (UniProt P08311); assay: Cat-G beads, SUM of all pH elution fractions
[5] = target: human neutrophil elastase (human) (UniProt P08246); assay: HNE beads, abbreviated fractionation, pH 7.0
[6] = target: human Cathepsin G (human) (UniProt P08311); assay: Cat-G beads, pH 6.0 elution
[7] = target: human neutrophil elastase (human) (UniProt P08246); assay: HNE beads, abbreviated fractionation, pH 3.5
[8] = target: human neutrophil elastase (human) (UniProt P08246); assay: HNE beads, pH 4.5 elution
[9] = target: human neutrophil elastase (human) (UniProt P08246); assay: HNE beads, pH 3.0 elution
[10] = target: human neutrophil elastase (human) (UniProt P08246); assay: HNE beads, pH 7.0 elution
[11] = target: human neutrophil elastase (human) (UniProt P08246); assay: HNE beads, SUM of all pH elution fractions
[12] = target: human neutrophil elastase (human) (UniProt P08246); assay: HNE beads, pH 2.0 elution
[13] = target: human neutrophil elastase (human) (UniProt P08246); assay: HNE beads, abbreviated fractionation, pH 2.0
[14] = target: human neutrophil elastase (human) (UniProt P08246); assay: HNE beads, pH 5.0 elution
[15] = target: human neutrophil elastase (human) (UniProt P08246); assay: HNE beads, pH 2.5 elution
[16] = target: human Cathepsin G (human) (UniProt P08311); assay: Cat-G beads, pH 4.5 elution
[17] = target: human neutrophil elastase (human) (UniProt P08246); assay: HNE beads, pH 6.0 elution
[18] = target: human Cathepsin G (human) (UniProt P08311); assay: Cat-G beads, pH 2.0 elution
[19] = target: human Cathepsin G (human) (UniProt P08311); assay: Cat-G beads, pH 4.0 elution
[20] = target: human Cathepsin G (human) (UniProt P08311); assay: Cat-G beads, pH 5.0 elution
[21] = target: human Cathepsin G (human) (UniProt P08311); assay: Cat-G beads, pH 3.0 elution
[22] = target: human Cathepsin G (human) (UniProt P08311); assay: Cat-G beads, final TBS-TWEEN wash
[23] = target: human neutrophil elastase (human) (UniProt P08246); assay: HNE beads, pH 3.5 elution
[24] = target: human neutrophil elastase (human) (UniProt P08246); assay: HNE beads, pH 5.5 elution
[25] = target: human neutrophil elastase (human) (UniProt P08246); assay: HNE beads, pH 4.0 elution
[26] = target: human Cathepsin G (human) (UniProt P08311); assay: Cat-G beads, pH 2.5 elution
[27] = target: human neutrophil elastase (human) (UniProt P08246); assay: HNE beads, final TBS-TWEEN wash
[28] = target: human Cathepsin G (human) (UniProt P08311); assay: Cat-G beads, pH 7.0 elution
[29] = target: human neutrophil elastase (human) (UniProt P08246); assay: HNE beads, abbreviated fractionation, WASH
[30] = target: M13 MB48 phage (BPTI:VIII fusion display phage) (bovine BPTI fused to phage M13 gene VIII protein); assay: strain M13MB48 batch 5; protein A-agarose alone
trypsin [31] = target: trypsin (UniProt P00760); assay: immobilized trypsin, TBS buffer pH 7.5, pH 2.2 elution
Sequence of trypsin (P00760 24-246): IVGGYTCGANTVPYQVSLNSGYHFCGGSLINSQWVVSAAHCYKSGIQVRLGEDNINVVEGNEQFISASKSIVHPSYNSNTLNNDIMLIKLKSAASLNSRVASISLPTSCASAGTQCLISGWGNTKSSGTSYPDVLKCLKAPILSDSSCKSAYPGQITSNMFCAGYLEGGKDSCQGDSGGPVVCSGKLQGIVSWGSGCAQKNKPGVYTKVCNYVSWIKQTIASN

trypsin [32] = target: trypsin (UniProt P00760); assay: immobilized trypsin, CBS buffer pH 6.5, pH 2.2 elution
trypsin [33] = target: trypsin (UniProt P00760); assay: acid elution from trypsin beads
anhydro-trypsin [34] = target: anhydro-trypsin (UniProt P00760); assay: acid elution from anhydrotrypsin beads, experiment 2
Sequence of anhydro-trypsin (P00760 24-246): as above

[35] = target: human neutrophil elastase (human) (UniProt P08246); assay: acid elution from HNE beads
anhydro-trypsin [36] = target: anhydro-trypsin (UniProt P00760); assay: loss of titer on anhydrotrypsin beads
anhydro-trypsin [37] = target: anhydro-trypsin (UniProt P00760); assay: elution from anhydrotrypsin beads
trypsin [38] = target: trypsin (UniProt P00760); assay: elution from trypsin beads
anhydro-trypsin [39] = target: anhydro-trypsin (UniProt P00760); assay: acid elution from anhydrotrypsin beads, experiment 1
M13 mp18 phage [40] = assay: strain M13MP18; NRS IgG and protein A-agarose
M13 mp18 phage [41] = assay: strain M13MP18; IgG from normal rabbit serum added
[42] = target: M13 MB48 phage (BPTI:VIII fusion display phage) (bovine BPTI fused to phage M13 gene VIII protein); assay: strain M13MB48 batch 5; NRS IgG added
[43] = target: M13 MB48 phage (BPTI:VIII fusion display phage) (bovine BPTI fused to phage M13 gene VIII protein); assay: strain M13MB48 batch 5; NRS IgG and protein A-agarose
[44] = target: M13 MB48 phage (BPTI:VIII fusion display phage) (bovine BPTI fused to phage M13 gene VIII protein); assay: strain M13MB48 batch 4; NRS IgG added
[45] = target: M13 MB48 phage (BPTI:VIII fusion display phage) (bovine BPTI fused to phage M13 gene VIII protein); assay: strain M13MB48 batch 4; NRS IgG and protein A-agarose

Sequence of human neutrophil elastase (human) (P08246 30-247 limits assumed): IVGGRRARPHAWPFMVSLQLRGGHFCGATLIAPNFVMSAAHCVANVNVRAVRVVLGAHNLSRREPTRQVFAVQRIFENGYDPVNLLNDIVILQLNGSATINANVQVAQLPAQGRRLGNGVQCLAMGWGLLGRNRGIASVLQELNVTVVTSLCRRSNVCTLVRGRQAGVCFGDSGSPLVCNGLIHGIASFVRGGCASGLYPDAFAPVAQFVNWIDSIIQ
Sequence of human Cathepsin G (human) (P08311 21-244 limits assumed): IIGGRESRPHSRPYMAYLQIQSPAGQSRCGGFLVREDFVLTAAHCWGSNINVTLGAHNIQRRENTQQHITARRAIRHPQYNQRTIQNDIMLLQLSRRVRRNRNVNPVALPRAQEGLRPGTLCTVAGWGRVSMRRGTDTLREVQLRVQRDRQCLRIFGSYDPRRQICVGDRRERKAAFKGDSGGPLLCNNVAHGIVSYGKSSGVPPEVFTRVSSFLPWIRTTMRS

MA-ITI phage (ITI-D1-III fusion display phage) (from UniProt P02760 22-77)
fraction of input [1]: 1.4e-05 | fraction of input [2]: 9.6e-07 | total pfu in sample [2]: 440000 pfu | fraction of input [3]: 2.6e-06 | total pfu in sample [3]: 1.2e+06 pfu | fraction of input [4]: 3e-05 | total pfu in sample [4]: 1.4e+07 pfu | fraction of input [5]: 1e-05 | fraction of input [6]: 5e-06 | total pfu in sample [6]: 2.3e+06 pfu | fraction of input [7]: 3e-06 | fraction of input [8]: 3.5e-07 | total pfu in sample [8]: 120000 pfu | fraction of input [9]: 8.5e-08 | total pfu in sample [9]: 29000 pfu | fraction of input [10]: 4.7e-06 | total pfu in sample [10]: 1.6e+06 pfu | fraction of input [11]: 2e-05 | total pfu in sample [11]: 5.7e+06 pfu | fraction of input [12]: 5e-08 | total pfu in sample [12]: 17000 pfu | fraction of input [13]: 1e-06 | fraction of input [14]: 9.1e-07 | total pfu in sample [14]: 310000 pfu | fraction of input [15]: 4.1e-08 | total pfu in sample [15]: 14000 pfu | fraction of input [16]: 1.5e-06 | total pfu in sample [16]: 670000 pfu | fraction of input [17]: 2.9e-06 | total pfu in sample [17]: 1e+06 pfu | fraction of input [18]: 7e-07 | total pfu in sample [18]: 320000 pfu | fraction of input [19]: 9.6e-07 | total pfu in sample [19]: 440000 pfu | fraction of input [20]: 2.4e-06 | total pfu in sample [20]: 1.1e+06 pfu | fraction of input [21]: 7.8e-07 | total pfu in sample [21]: 360000 pfu | fraction of input [22]: 1.5e-05 | total pfu in sample [22]: 7.1e+06 pfu | fraction of input [23]: 1.4e-07 | total pfu in sample [23]: 49000 pfu | fraction of input [24]: 4.7e-06 | total pfu in sample [24]: 1.6e+06 pfu | fraction of input [25]: 2.1e-07 | total pfu in sample [25]: 72000 pfu | fraction of input [26]: 5.9e-07 | total pfu in sample [26]: 270000 pfu | fraction of input [27]: 5.3e-06 | total pfu in sample [27]: 1.8e+06 pfu | fraction of input [28]: 1.3e-05 | total pfu in sample [28]: 6.1e+06 pfu | fraction of input [29]: 1e-05

protein A (agarose beads)
percentage of input phage (pfu) remaining [30]: 58%

MK phage
percent of input phage recovered (trypsin [31]): 0.00034% | percent of input phage recovered (trypsin [32]): 0.00028%

M13 mp18 phage
eluted phage, percentage of input (trypsin [33]): 0.0005% | relative binding (to M13MP18) (trypsin [33]): 1 | eluted phage, percentage of input (anhydro-trypsin [34]): 0.3% | relative to M13mp18 (anhydro-trypsin [34]): 1 | eluted phage, percentage of input [35]: 0.0003% | relative binding (to M13MP18) [35]: 1 | pfu post incubation, percentage of input (anhydro-trypsin [36]): 121% | eluted phage, percentage of input (anhydro-trypsin [37]): 0.1% | relative binding (to M13MP18) (anhydro-trypsin [37]): 1 | eluted phage, percentage of input (trypsin [38]): 0.00023% | relative binding (to M13MP18) (trypsin [38]): 1 | eluted phage, percentage of input (anhydro-trypsin [39]): 0.2% | relative to M13MP18 (anhydro-trypsin [39]): 1

normal rabbit serum / IgG purified from normal rabbit serum (antibody)
percentage of input phage (pfu) remaining (M13 mp18 phage [40]): 88% | percentage of input phage (pfu) remaining (M13 mp18 phage [41]): 104% | percentage of input phage (pfu) remaining [42]: 105% | percentage of input phage (pfu) remaining [43]: 110% | percentage of input phage (pfu) remaining [44]: 125% | percentage of input phage (pfu) remaining [45]: 121%
